The values below come from US20220096594A1 (University of Texas, published 2022).

Test [1] concerns the target T1, His6-LC3A, biotinylated and immobilized on streptavidin agarose (human, UniProt Q9H492 1-121, chemically biotinylated (sites not given)).
T1 construct: the species is not restated for this construct; The tag is placed at the N-terminus only because of the name His6-LC3A; also called immobilized LC3A; immobilized LC3; not shown: His6 tag
Kind of test: radiolabeled peptide fusion incubated with immobilized LC3A.

The target in test [2] is LC3 (as used in surface plasmon resonance) (human, UniProt Q9H492 1-120). Put plainly: surface plasmon resonance.

Bridge positions count the residues as written; N and C are the ends. Square brackets hold non-standard residues; d marks the D form. Primed or numbered codes have the meaning given here. Ends that are not written are not given here. * marks the point of attachment. DSG″ = disuccinimidyl glutarate, a bis-NHS cross-linker that leaves a glutaryl bridge between two amines; DSG(3) = disuccinimidyl glutarate, bis-NHS cross-linker leaving a glutaryl bridge between two amines; puromycin = COc1ccc(C[C@H](N*)C(=O)N[C@H]2[C@@H](O)[C@H](n3cnc4c(N(C)C)ncnc43)O[C@@H]2CO)cc1; DSG = disuccinimidyl glutarate; NMeA = CN[C@@H](C)C(=O)O; mRNA = not defined here

B1: Clone 4B radiolabeled mRNA-peptide fusion (peptide)
peptide: MFPHRVTA[NMeA]K
modifications: bridge N-10; not fully specified (C-terminus, bridges); also: radiolabeled
notes: Tested as an individual in vitro translated peptide fusion from the SUPR mRNA display selection; also called Peptide 4B
Take B1: the “% of radiolabeled peptide-fusions bound to immobilized LC3” value (“% of radiolabeled peptide-fusions bound” below) in test [1] is 86%.

B2: SUPR 4B (synthesized cyclic peptide) (peptide)
peptide: MFPHRVTA[NMeA]K
modifications: bridge N-10 via DSG″
notes: It is kept apart from the mRNA-peptide fusion m1; also called Clone 4B
On to B2, for which the affinity in test [2], expressed as Kd, was 291 µM. As to MYARSLRD[NMeA]K (bridge N-10; not fully specified (C-terminus, bridges); also: radiolabeled) [Clone 25A radiolabeled mRNA-peptide fusion], the “% of radiolabeled peptide-fusions bound” value in test [1] came out at 6%.

For MNARSLRD[NMeA]K (bridge N-10; not fully specified (C-terminus, bridges); also: radiolabeled) [Clone 25F radiolabeled mRNA-peptide fusion], in test [1], the “% of radiolabeled peptide-fusions bound” value is 5%. As for MLSDIPVNDK-{puromycin-mRNA} (bridge N-10 via DSG(3); reading uncertain; also: radiolabeled) [Clone 4E radiolabeled mRNA-peptide fusion], in test [1], the “% of radiolabeled peptide-fusions bound” value was determined as 7%.

B3: SUPR 4B1W (peptide)
peptide: MWPHRVTA[NMeA]K
modifications: bridge N-10 via DSG
notes: Phenylalanine-to-tryptophan variant of SUPR 4B at position 2
In the case of B3, in test [2], the Kd (usually the constant that tells how readily two partners part at equilibrium) came to 30 µM and the “fold improvement of the apparent dissociation constant relative to SUPR4B” value was about 10 fold. MFSHRVTL[NMeA]K (bridge N-10; not fully specified (C-terminus, bridges); also: radiolabeled) [Clone 25C radiolabeled mRNA-peptide fusion]: the “% of radiolabeled peptide-fusions bound” value in test [1] came out at 13%.
